{"source": "paper doi:10.1101/2025.08.29.672660", "target": "HdpA^S-LEHHHHHH (HdpA devoid of its N-terminal hydrophobic segment, His-tagged) (Helicobacter pylori strain 26695)", "test": "crystal structure"}
{"substance": "LhiA^S-SAHHHHHH (LhiA devoid of its predicted signal peptide and lipidated cysteine, His-tagged) (natural protein)", "values": [{"measurement": "stoichiometry N", "result": 1}]}
